Source: patent US20240392020A1 (JIANGSU HENGRUI PHARMACEUTICALS, published 2024)
Substitutions are numbered along the chain they refer to.

Tests used:
hPDL1 antigen = molecular target: T1, hPDL1 antigen (human, UniProt Q9NZQ7 19-239, limits assumed); experiment: ELISA
T1 construct: bought
Protocol: For an antibody targeting a soluble protein, the binding activity of the antibody against the soluble protein was detected by ELISA. […] After the blocking was completed, the blocking solution was discarded; and the plate was washed 3 times with a PBST buffer (pH 7.4, PBS containing 0.1% tween-20). 100 μL of the antibody solution diluted in a gradient was added to each well, and the mixture was incubated at 37° C. for 1 h. After the incubation was completed, the plate was washed 3 times with PBST. […] The plate was washed 3 times with PBST. […] The reaction was stopped by adding 50 μL of 1 M H₂SO₄ to each well. The absorbance values at 450 nm were read on a microplate reader, the binding curves of the antibodies to an antigen were fitted with software, and the EC₅₀ values were calculated.

CEA on MKN45 cells = molecular target: T2, CEA on MKN45 cells (UniProt P06731 35-685); experiment: FACS, MKN45 cells
T2 construct: whole, on cells
T2 sequence (looked up): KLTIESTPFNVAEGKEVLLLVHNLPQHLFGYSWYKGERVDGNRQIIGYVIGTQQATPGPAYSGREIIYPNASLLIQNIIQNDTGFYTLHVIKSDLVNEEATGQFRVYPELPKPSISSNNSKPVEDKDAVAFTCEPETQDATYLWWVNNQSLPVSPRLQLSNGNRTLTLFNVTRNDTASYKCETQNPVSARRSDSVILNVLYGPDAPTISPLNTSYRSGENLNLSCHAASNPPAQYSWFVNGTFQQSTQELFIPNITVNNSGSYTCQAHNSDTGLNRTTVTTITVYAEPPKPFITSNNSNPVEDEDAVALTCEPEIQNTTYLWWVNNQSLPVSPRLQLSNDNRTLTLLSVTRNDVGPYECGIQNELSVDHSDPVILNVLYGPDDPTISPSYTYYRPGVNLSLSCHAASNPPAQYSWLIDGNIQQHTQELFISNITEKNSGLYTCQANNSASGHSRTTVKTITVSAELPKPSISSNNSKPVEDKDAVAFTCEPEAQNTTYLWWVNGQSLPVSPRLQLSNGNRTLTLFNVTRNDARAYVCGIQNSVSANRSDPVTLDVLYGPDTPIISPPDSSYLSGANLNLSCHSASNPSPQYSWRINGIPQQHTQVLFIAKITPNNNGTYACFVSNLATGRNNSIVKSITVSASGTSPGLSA

[1] = molecular target: T3, B7H3 on the recombinant cell line CT26-B7H3 (UniProt Q5ZPR3 29-534, limits assumed); experiment: FACS, CT26-B7H3 cells
T3 construct: whole, on cells
T3 sequence (looked up): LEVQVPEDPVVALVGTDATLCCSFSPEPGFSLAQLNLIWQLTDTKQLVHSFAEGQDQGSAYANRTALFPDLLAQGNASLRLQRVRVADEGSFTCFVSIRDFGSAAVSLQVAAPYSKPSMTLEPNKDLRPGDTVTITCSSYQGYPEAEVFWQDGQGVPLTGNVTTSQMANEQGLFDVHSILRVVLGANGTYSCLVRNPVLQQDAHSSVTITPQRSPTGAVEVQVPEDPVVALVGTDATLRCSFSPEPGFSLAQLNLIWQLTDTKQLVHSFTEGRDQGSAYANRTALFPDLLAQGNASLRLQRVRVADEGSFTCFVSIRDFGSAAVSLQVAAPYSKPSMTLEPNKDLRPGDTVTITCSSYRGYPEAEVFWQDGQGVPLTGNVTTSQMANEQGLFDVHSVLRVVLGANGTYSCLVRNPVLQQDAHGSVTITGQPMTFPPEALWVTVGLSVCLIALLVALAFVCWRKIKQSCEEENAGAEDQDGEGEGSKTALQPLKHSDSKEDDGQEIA

T1 sequence (Q9NZQ7 19-239 limits assumed): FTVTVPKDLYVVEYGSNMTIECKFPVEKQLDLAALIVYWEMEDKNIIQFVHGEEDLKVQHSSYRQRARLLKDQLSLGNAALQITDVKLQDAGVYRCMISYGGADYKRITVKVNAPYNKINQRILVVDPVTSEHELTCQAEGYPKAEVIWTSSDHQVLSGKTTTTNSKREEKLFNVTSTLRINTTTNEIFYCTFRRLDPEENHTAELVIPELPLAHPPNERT

B1: PL-1 (bispecific antibody, human IgG1, kappa, L234A L235A)
heavy 1: not shown
light 1: DIVLTQSPASLAVSPGQRATITCRASESVSIHGTHLMHWYQQKPGQPPKLLIYAASKLESGVPARFSGSGSGTDFTLTINPVEAEDTANYYCQQSFEDPLTFGQGTKLEIKGGGGSGIPPKIECLPIDISIDEGKVLTVASAFTGEPTPEVTWSTGGRKIHSQEQGRFHIENTDDLTTLIIKDVQKQDGGLYTLTLRNEFGSDSATVNIHIRSI
heavy 2: not shown
light 2: not shown
- EC50 (hPDL1 antigen): 1.6 nM

B2: PL-13 (bispecific antibody, human IgG1, kappa, L234A L235A)
heavy 1: not shown
light 1: B1 light 1 with G112R, G113T, G114V, G115A, A142C, L176S, I180T
heavy 2: not shown
light 2: not shown
- EC50 (hPDL1 antigen): 0.5 nM

B3: PL-15 (bispecific antibody, human IgG1, kappa, L234A L235A)
heavy 1: not shown
light 1: B1 light 1 with G112R, G113T, G114V, G115A, V136C, L176S, I180T
heavy 2: not shown
light 2: not shown
- EC50 (hPDL1 antigen): 1.4 nM

B4: PL-11 (bispecific antibody, human IgG1, kappa, L234A L235A)
heavy 1: not shown
light 1: B1 light 1 with G112R, G113T, G114V, G115A, L176S, I180T
heavy 2: not shown
light 2: not shown
- EC50 (hPDL1 antigen): 0.6 nM

B5: PL-14 (bispecific antibody, human IgG1, kappa, L234A L235A)
heavy 1: not shown
light 1: B1 light 1 with G112R, G113T, G114V, G115A, L176S, I180T
heavy 2: not shown
light 2: not shown
- EC50 (hPDL1 antigen): 1.3 nM

B6: PL-12 (bispecific antibody, human IgG1, kappa, L234A L235A)
heavy 1: not shown
light 1: B1 light 1 with G112R, G113T, G114V, G115A, V136C, L176S, I180T
heavy 2: not shown
light 2: not shown
- EC50 (hPDL1 antigen): 0.5 nM

B7: PL-19 (bispecific antibody, human IgG1, kappa, L234A L235A)
heavy 1: not shown
light 1: B1 light 1 with G112R, G113T, G114V, G115A, A142C, L176S, I180T
heavy 2: not shown
light 2: not shown
- EC50 (hPDL1 antigen): 1.6 nM

B8: PL-18 (bispecific antibody, human IgG1, kappa, L234A L235A)
heavy 1: not shown
light 1: B1 light 1 with G112R, G113T, G114V, G115A, V136C, L176S, I180T
heavy 2: not shown
light 2: not shown
- EC50 (hPDL1 antigen): 1.6 nM

B9: PL-17 (bispecific antibody, human IgG1, kappa, L234A L235A)
heavy 1: not shown
light 1: B1 light 1 with G112R, G113T, G114V, G115A, L176S, I180T
heavy 2: not shown
light 2: not shown
- EC50 (hPDL1 antigen): 1.4 nM

B10: PL-2 (bispecific antibody, human IgG1, kappa, L234A L235A)
heavy 1: not shown
light 1: B1 light 1 with L176S, I180T
heavy 2: not shown
light 2: not shown
- EC50 (hPDL1 antigen): 0.5 nM

B11: PL-6 (bispecific antibody, human IgG1, kappa, L234A L235A)
heavy 1: not shown
light 1: B1 light 1 with V136C, L176S, I180T
heavy 2: not shown
light 2: not shown
- EC50 (hPDL1 antigen): 0.8 nM

B12: PL-9 (bispecific antibody, human IgG1, kappa, L234A L235A)
heavy 1: not shown
light 1: B1 light 1 with V136C, L176S, I180T
heavy 2: not shown
light 2: not shown
- EC50 (hPDL1 antigen): 0.6 nM

B13: PL-8 (bispecific antibody, human IgG1, kappa, L234A L235A)
heavy 1: not shown
light 1: B1 light 1 with L176S, I180T
heavy 2: not shown
light 2: not shown
- EC50 (hPDL1 antigen): 1.4 nM

B14: PL-10 (bispecific antibody, human IgG1, kappa, L234A L235A)
heavy 1: not shown
light 1: B1 light 1 with A142C, L176S, I180T
heavy 2: not shown
light 2: not shown
- EC50 (hPDL1 antigen): 0.6 nM

B15: PL-3 (bispecific antibody, human IgG1, kappa, L234A L235A)
heavy 1: not shown
light 1: B1 light 1 with V136C, L176S, I180T
heavy 2: not shown
light 2: not shown
- EC50 (hPDL1 antigen): 0.6 nM

B16: PL-4 (bispecific antibody, human IgG1, kappa, L234A L235A)
heavy 1: not shown
light 1: B1 light 1 with A142C, L176S, I180T
heavy 2: not shown
light 2: not shown
- EC50 (hPDL1 antigen): 0.7 nM

B17: PL-7 (bispecific antibody, human IgG1, kappa, L234A L235A)
heavy 1: not shown
light 1: B1 light 1 with A142C, L176S, I180T
heavy 2: not shown
light 2: not shown
- EC50 (hPDL1 antigen): 0.5 nM

B18: PL-5 (bispecific antibody, human IgG1, kappa, L234A L235A)
heavy 1: not shown
light 1: B1 light 1 with L176S, I180T
heavy 2: not shown
light 2: not shown
- EC50 (hPDL1 antigen): 0.7 nM

B19: N14 (antibody)
heavy: not shown
light: EIVLTQSPGTLSLSPGERATLSCRASQNINNRFLAWYQQRPGQAPRLLIYAASSRATGVPDRFSGSGSGTDFTLTISRLEAEDFAMYHCQQYGSFPRTFGQGTMVDIKSGAPRFLTRPLAFVVSVGKDATLSSQIVGNPTPQVSWEKDQQPVAAGARFRLAQDGDLYRLKILDLALGDSGQYVSRARNAIGEAFACVGLQVDAEA
- EC50 (CEA on MKN45 cells): 1.9 nM

B20: N16 (antibody)
heavy: not shown
light: B19 light with K170H
- EC50 (CEA on MKN45 cells): 3.4 nM

B21: N15 (antibody)
heavy: not shown
light: B19 light
- EC50 (CEA on MKN45 cells): 2.6 nM

B22: N10 (antibody)
heavy: not shown
light: B19 light with L119K, K170T
- EC50 (CEA on MKN45 cells): 3 nM

B23: N13 (antibody)
heavy: not shown
light: B19 light with L115K, L119K, K170H
- EC50 (CEA on MKN45 cells): 2.9 nM

B24: S0 (antibody, human IgG1, kappa)
heavy: not shown
light: DIQMTQSPASLSASVGDRVTITCRASENIFSYLAWYQQKPGKSPKLLVYNTRTLAEGVPSRFSGSGSGTDFSLTISSLQPEDFATYYCQHHYGTPFTFGSGTKLEIKRTVAAPSVFIFPPSDEQLKSGTASVVCLLNNFYPREAKVQWKVDNALQSGNSQESVTEQDSKDSTYSLSSTLTLSKADYEKHKVYACEVTHQGLSSPVTKSFNRGEC
notes: also called SO
- EC50 [1]: 1.01 nM

B25: V5 (antibody)
heavy: not shown
light: QIVLTQSPAILSASPGEKVTMTCRASSSVSYMNWYQQKPGSSPKPWIYATSNLASGVPARFSVSVSGTSHSLTISRVEAEDAATYYCQQWSSNPLTFGAGTKLELKGIPPKIEALPSDISIDEGKVLTVACAFTGEPTPEVTWSCGGRKIHSQEQGRFHIENTDDLTTLIIMDVQKQDGGLYTLSLGNEFGSDSATVNIHIRSI
- EC50 [1]: 3.2 nM

B26: V6 (antibody)
heavy: not shown
light: B25 light
- EC50 [1]: 4.7 nM

B27: N17 (antibody)
heavy: not shown
light: EIVLTQSPGTLSLSPGERATLSCRASQNINNRFLAWYQQRPGQAPRLLIYAASSRATGVPDRFSGSGSGTDFTLTISRLEAEDFAMYHCQQYGSFPRTFGQGTMVDIKDQPQFSGAPRFLTRPKAFVVSVGKDATLSSQIVGNPTPQVSWEKDQQPVAAGARFRLAQDGDLYRLTILDLALGDSGQYVSRARNAIGEAFACVGLQVDAEA
- EC50 (CEA on MKN45 cells): 2.2 nM

B28: N20 (antibody)
heavy: not shown
light: B27 light with L120K, T175K
- EC50 (CEA on MKN45 cells): 2.8 nM

B29: N26 (antibody)
heavy: not shown
light: B27 light with D109G, Q110G, P111G, Q112G, F113S
- EC50 (CEA on MKN45 cells): 0.84 nM

B30: N23 (antibody)
heavy: not shown
light: B27 light with L120R, T175H
- EC50 (CEA on MKN45 cells): 9.4 nM

B31: N19 (antibody)
heavy: not shown
light: B27 light with L120K, T175K
- EC50 (CEA on MKN45 cells): 4.3 nM

B32: N18 (antibody)
heavy: not shown
light: B27 light
- EC50 (CEA on MKN45 cells): 3.2 nM

B33: N24 (antibody)
heavy: not shown
light: B27 light with L120R, T175H
- EC50 (CEA on MKN45 cells): 6.7 nM

B34: N21 (antibody)
heavy: not shown
light: B27 light with L120K, T175H
- EC50 (CEA on MKN45 cells): 5.2 nM

B35: N22 (antibody)
heavy: not shown
light: B27 light with L120R, T175K
- EC50 (CEA on MKN45 cells): 4.5 nM

B36: N25 (antibody)
heavy: not shown
light: EIVLTQSPGTLSLSPGERATLSCRASQNINNRFLAWYQQRPGQAPRLLIYAASSRATGVPDRFSGSGSGTDFTLTISRLEAEDFAMYHCQQYGSFPRTFGQGTMVDIKGGGGSGGGGSSGAPRFLTRPKAFVVSVGKDATLSSQIVGNPTPQVSWEKDQQPVAAGARFRLAQDGDLYRLTILDLALGDSGQYVSRARNAIGEAFACVGLQVDAEA
- EC50 (CEA on MKN45 cells): 0.62 nM

B37: N27 (antibody)
heavy: not shown
light: B36 light
- EC50 (CEA on MKN45 cells): 0.67 nM
